CN101300273A

Columns and labels:
[1] = target: 人肿瘤细胞上的TR-2 (human) (UniProt O14763); test: cell-based or functional assay
[2] = target: 人肿瘤细胞上的TR-2 (human) (UniProt O14763); test: cell-based assay, 10 μg/ml M412, anti-mouse IgG Fc-HRP, isotype control subtracted; CNS cancer line U251
[3] = target: 人肿瘤细胞上的TR-2 (human) (UniProt O14763); test: cell-based assay, 10 μg/ml M412, anti-mouse IgG Fc-HRP, isotype control subtracted; lung cancer line A549
[4] = target: 人肿瘤细胞上的TR-2 (human) (UniProt O14763); test: cell-based assay, 10 μg/ml M412, anti-mouse IgG Fc-HRP, isotype control subtracted; melanoma line UACC-62
[5] = target: 人肿瘤细胞上的TR-2 (human) (UniProt O14763); test: cell-based assay, 10 μg/ml M412, anti-mouse IgG Fc-HRP, isotype control subtracted; CNS cancer line SF-295
[6] = target: 人肿瘤细胞上的TR-2 (human) (UniProt O14763); test: cell-based assay, 10 μg/ml M412, anti-mouse IgG Fc-HRP, isotype control subtracted; melanoma line LOX IMVI
[7] = target: 人肿瘤细胞上的TR-2 (human) (UniProt O14763); test: cell-based assay, 10 μg/ml M412, anti-mouse IgG Fc-HRP, isotype control subtracted; colon cancer line HT-29
[8] = target: 人肿瘤细胞上的TR-2 (human) (UniProt O14763); test: cell-based assay, 10 μg/ml M412, anti-mouse IgG Fc-HRP, isotype control subtracted; colon cancer line KM-12
[9] = target: 人肿瘤细胞上的TR-2 (human) (UniProt O14763); test: cell-based assay, 10 μg/ml M412, anti-mouse IgG Fc-HRP, isotype control subtracted; melanoma line RPMI 7951
[10] = target: 人肿瘤细胞上的TR-2 (human) (UniProt O14763); test: cell-based assay, 10 μg/ml M412, anti-mouse IgG Fc-HRP, isotype control subtracted; breast cancer line T-47D
[11] = target: 人肿瘤细胞上的TR-2 (human) (UniProt O14763); test: cell-based assay, 10 μg/ml M412, anti-mouse IgG Fc-HRP, isotype control subtracted; colon cancer line SW-707
[12] = target: 人肿瘤细胞上的TR-2 (human) (UniProt O14763); test: cell-based assay, 10 μg/ml M412, anti-mouse IgG Fc-HRP, isotype control subtracted; colon cancer line SW-948
[13] = target: 人肿瘤细胞上的TR-2 (human) (UniProt O14763); test: cell-based assay, 10 μg/ml M412, anti-mouse IgG Fc-HRP, isotype control subtracted; kidney cancer line SN12C
[14] = target: 人肿瘤细胞上的TR-2 (human) (UniProt O14763); test: cell-based assay, 10 μg/ml M412, anti-mouse IgG Fc-HRP, isotype control subtracted; kidney cancer line UO-31
[15] = target: 人肿瘤细胞上的TR-2 (human) (UniProt O14763); test: cell-based assay, 10 μg/ml M412, anti-mouse IgG Fc-HRP, isotype control subtracted; colon cancer line HCT-116
[16] = target: 人肿瘤细胞上的TR-2 (human) (UniProt O14763); test: cell-based assay, 10 μg/ml M412, anti-mouse IgG Fc-HRP, isotype control subtracted; kidney cancer line Caki-1
[17] = target: 人肿瘤细胞上的TR-2 (human) (UniProt O14763); test: cell-based assay, 10 μg/ml M412, anti-mouse IgG Fc-HRP, isotype control subtracted; kidney cancer line Caki-2
[18] = target: 人肿瘤细胞上的TR-2 (human) (UniProt O14763); test: cell-based assay, 10 μg/ml M412, anti-mouse IgG Fc-HRP, isotype control subtracted; colon cancer line HCC-2998
[19] = target: 人肿瘤细胞上的TR-2 (human) (UniProt O14763); test: cell-based assay, 10 μg/ml M412, anti-mouse IgG Fc-HRP, isotype control subtracted; ovarian cancer line IGROV1
[20] = target: 人肿瘤细胞上的TR-2 (human) (UniProt O14763); test: cell-based assay, 10 μg/ml M412, anti-mouse IgG Fc-HRP, isotype control subtracted; prostate cancer line 22Rv1
[21] = target: 人肿瘤细胞上的TR-2 (human) (UniProt O14763); test: cell-based assay, 10 μg/ml M412, anti-mouse IgG Fc-HRP, isotype control subtracted; prostate cancer line LNCaP
[22] = target: 人肿瘤细胞上的TR-2 (human) (UniProt O14763); test: cell-based assay, 10 μg/ml M412, anti-mouse IgG Fc-HRP, isotype control subtracted; breast cancer line HS 578.T
[23] = target: 人肿瘤细胞上的TR-2 (human) (UniProt O14763); test: cell-based assay, 10 μg/ml M412, anti-mouse IgG Fc-HRP, isotype control subtracted; liver cancer line NCI-SNU-1
[24] = target: 人肿瘤细胞上的TR-2 (human) (UniProt O14763); test: cell-based assay, 10 μg/ml M412, anti-mouse IgG Fc-HRP, isotype control subtracted; prostate cancer line DU 145
[25] = target: 人肿瘤细胞上的TR-2 (human) (UniProt O14763); test: cell-based assay, 10 μg/ml M412, anti-mouse IgG Fc-HRP, isotype control subtracted; breast cancer line MDA-MB-231
[26] = target: 人肿瘤细胞上的TR-2 (human) (UniProt O14763); test: cell-based assay, 10 μg/ml M412, anti-mouse IgG Fc-HRP, isotype control subtracted; line A 673 (listed under leukemia)
[27] = target: 人肿瘤细胞上的TR-2 (human) (UniProt O14763); test: cell-based assay, 10 μg/ml M412, anti-mouse IgG Fc-HRP, isotype control subtracted; non-small cell lung cancer line NCI-H460
[28] = target: 人肿瘤细胞上的TR-2 (human) (UniProt O14763); test: cell-based assay, 10 μg/ml M412, anti-mouse IgG Fc-HRP, isotype control subtracted; non-small cell lung cancer line NCI-H2126
[29] = target: 人肿瘤细胞上的TR-2 (human) (UniProt O14763); test: cell-based assay, 10 μg/ml M412, anti-mouse IgG Fc-HRP, isotype control subtracted; non-small cell lung cancer line HOP-62 (first mention)
[30] = target: 人肿瘤细胞上的TR-2 (human) (UniProt O14763); test: cell-based assay, 10 μg/ml M412, anti-mouse IgG Fc-HRP, isotype control subtracted; non-small cell lung cancer line HOP-62 (second mention)

Sequence of UniProt O14763 (O14763 56-440): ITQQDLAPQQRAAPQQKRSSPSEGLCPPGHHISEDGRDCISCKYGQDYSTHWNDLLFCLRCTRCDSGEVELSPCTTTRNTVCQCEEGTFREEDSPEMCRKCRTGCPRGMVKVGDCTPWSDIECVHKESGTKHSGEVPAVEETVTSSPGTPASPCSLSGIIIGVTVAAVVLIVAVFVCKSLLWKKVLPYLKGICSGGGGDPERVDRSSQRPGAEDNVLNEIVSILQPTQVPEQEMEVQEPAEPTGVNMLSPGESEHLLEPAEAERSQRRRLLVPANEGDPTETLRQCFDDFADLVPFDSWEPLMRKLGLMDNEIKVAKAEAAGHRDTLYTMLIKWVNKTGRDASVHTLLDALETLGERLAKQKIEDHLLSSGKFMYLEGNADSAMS

B1: 小鼠抗TR-2抗体M412 (antibody, mouse IgG1, V domains shown)
VH: KVQLQQSGTELVKPGASVKLSCKASGYTFTEYIIHWVKQRSGQGLEWIGWFYPGSGYIKYNEKFKDKATMTADKSSSTVYMELSRLTSEDSAVYFCTRHEEDGYYAAYWGQGTLVTVSA
VL: DIVMTQSHKFMSTSVGDRVSITCKASQDVSSAVAWYQQKPGQSPKLLIYWASTRHTGVPDRFTGSGSGTDYTLTISSVQAEDLALYYCQQHYSTPYTFGGGTKLEIKR
ED50 (细胞存活减少50%, 3H-胸苷掺入), COLO 205细胞 [1]: 1.85 µg/mL
ED50 (细胞存活减少50%, 3H-胸苷掺入), MDA-231细胞 [1]: 0.6 µg/mL
ED50 (细胞存活减少50%, 3H-胸苷掺入), WM35细胞 [1]: 1.85 µg/mL
ED50 (细胞存活减少50%, 3H-胸苷掺入), WM793细胞 [1]: 1.85 µg/mL
OD450nm [2]: 0.323 OD450
OD450nm [3]: 0.381 OD450
OD450nm [4]: 0.319 OD450
OD450nm [5]: 0.354 OD450
OD450nm [6]: 0.573 OD450
OD450nm [7]: 0.869 OD450
OD450nm [8]: 0.77 OD450
OD450nm [9]: 0.322 OD450
OD450nm [10]: 0.366 OD450
OD450nm [11]: 0.323 OD450
OD450nm [12]: 0.423 OD450
OD450nm [13]: 0.313 OD450
OD450nm [14]: 0.331 OD450
OD450nm [15]: 0.41 OD450
OD450nm [16]: 0.93 OD450
OD450nm [17]: 0.443 OD450
OD450nm [18]: 0.635 OD450
OD450nm [19]: 0.312 OD450
OD450nm [20]: 0.301 OD450
OD450nm [21]: 0.63 OD450
OD450nm [22]: 0.403 OD450
OD450nm [23]: 0.354 OD450
OD450nm [24]: 0.372 OD450
OD450nm [25]: 0.408 OD450
OD450nm [26]: 0.347 OD450
OD450nm [27]: 0.326 OD450
OD450nm [28]: 0.501 OD450
OD450nm [29]: 0.313 OD450
OD450nm [30]: 0.47 OD450
